From the domain aggregation screens of Martell et al. (2025)

Assay: soluble fraction after stress (log2 fold change); higher = more stays soluble; pooled small domains, quantitative proteomics
Details: stress: 75 degC
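Also: 20 min heating vs room temperature control held 20 min.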

Row | Sequence | soluble fraction (log2)
1 | HMHNLYAPTQKEVDHARRVVEAAEAAAREGLGVVSLNGKMVDGPVIDRARLVLSRAELSGIRE | -0.157
2 | HMHNNTITLNKKTYVYTASGKKMSKYLGYTYINKGTTLNYYGTKNIKGKTFYYIGDHAYVNAANVGKVTN | -2.07
3 | HMHNQIGDKIRELRTRSNLTQADLGKLVGVSMQAVSKWERGGTPDIDVLLSVAKYFNISLDEMVGRT | -1.51
4 | HMHPEITLHPVRANIYSISVKNATSMEIYSVSGQLVGIRELKEGTNTLDLTGYINGVYIVNLQNKAFKLVK | -2.38
5 | HMHPELSDSQRTLIALMASGLKDEAIAVEMGVGARTVRRKVQELYELLGVRTRFQAGVAANQRGW | -2.34
6 | HMHPKDVPTRRELEVLQAVSEGLSTAEIGLRLDITENTVETFRRRLIQKFDAKNAIDLVVKAMAQGWIKV | -2.23
7 | HMHQGTIEVGSIVHIEGQKALGTILSLTQREAIVGLGALKTTIPLKRLHLATEAEARRHKKSVTPQEAV | -0.66
8 | HMHQIFAETVFEDIAFGPRNKGFNEEEVAKQVREAMAFVGLDYDTYAQRSPFQLSGGQMRRVAIAGVVA | 0.0104
9 | HMHQKYIITGTRDTYVVSQGETLRTIAEHVYGSRGYARYIIEHNHITHPDDIPVGLTIRLPELELNPDYR | -1.9
10 | HMHRAKRTKAQTQSSLESIEGIGPKTRKQLLVHFGGLAEVKAASVSELQKVKGISLDKAQKIYDFFHGS | -0.617
11 | HMHRNLSFEEEKEFLSAYTKQAEAGQIVDLNEMKAAYIEKVGHSIGGSQIYRMLERHGWRKVM | -0.446
12 | HMHSDSEIEKGYTDDGQKLSNVNGVYMTKSEMYNKGIVEKDPNTGEEVMGRNRVNPVTGELE | 0.442
13 | HMHSDWITWWYLKDKRFDDDYSLWDRQPVHPEYFEVVKEFKAPPESNPGGLDEVKRILRTYIPDAFAP | -1.11
14 | HMHSESAAHQRTSVELFARIPETGNLQSAQRHFDVINQFGRFPHRNKILQRPSSEQEEAFLRQPGSG | 0.265
15 | HMHSILDDIPTVGPARRKALMRRYESLEAIRQATVDELKELPEINEASAEAIVSFFAGQAKEG | -0.306
16 | HMHSRTWTSADGVKTFEGELQSYDAASGKVSVILPNHKRITFKQEKLSADDIAWLEKNGNRP | -0.033
17 | HMHTGLTNYEYKQIKSSLLKILTQSESMRLGELVDKVDQFESEKVTTVIRFLVGNEELMLFDDTLTLKKQL | -0.202
18 | HMHTTIIVASRDIAAGSVLTSHDLSSVAWVGGAVPKGSYTAADLAVGKTAFTAFQQGEPILESRLAS | -0.35
19 | HMHVVVIDKQGALSYQGKAITLLDLKNIVIDVPKETPFLIKADKDIHLQSFVEVLDLIKTAGFKKVSLQ | -2.86
20 | HMIAANMTISQRIAAALAEYGVMSVKDIAQEVLGATDKKDTEKIRVTLTRDHGKRFRTYSDGTWSLKDWRP | -2.19
21 | HMIAAVIAQVANTNERIILEKRYLSFKSWDEIAVEMRISPRWAYTLHERALKAVDQVLSKQNNE | -4.19
22 | HMIADDLKSLEGVDQDMLRDLAEAGINTRDDLAELAIDELIEITGVSTEEAEKVIMAARAHWFEEES | 0.318
23 | HMIAKEDDGTAFLIDGKISSEEEFKTISKDDILEVFVYKETEIAQKKLDSINSINNTYYTSLIEILLKE | ≥ 1.04
24 | HMIAKIEGQISYVGNRFLIVDVSGVGYKLFVTNEAISLSKVEESIKLWVHTAVRENSIDLYG | -1.7
25 | HMIANDDEIRKVVLEVIEEQPKAVEDVKNGRDRILDFLVGQVMKKTRGKANPSLASNLMKEEIEK | 0.453
26 | HMIANNFDEFVEKVSEAERKALNMPAGQEMTQKLLEMKLAANPNLTPEEWQRTKSEFMTFLFAVFVRE | -0.939

Row | Sequence | soluble fraction (log2)
27 | HMIAVLEEGSHFRAVNDVTGKPFGPEMVIKNGQVTAVGKTISTKPKNLLGKKEGTKFVISGKQYVIKDI | -0.0244
28 | HMIDAHTALLAKRLEAKGMLPLTDKSSAEEIYAEFGISKKAFKKALGALYKERLVRIGEDGVVWI | -1.8
29 | HMIDFIGLEAKLLSTISGEKMGNAEVIVDGNVMNIYVKSLDTSEIKFRENVLIIKQSDDKNYYLVAKP | -3.26
30 | HMIDIDTILKKYKPGRRDELIPLMQEIQEVYGHLSEEAVVKIGTYVGLSTTKIYGLATFYDQFRF | -1.76
31 | HMIDLGKSRTWHSENGRAIEARVINISEEQQTVEMQRVDGLKFELSWNQLSKADQTLLAEAAKKTALVA | -0.0567
32 | HMIDLPDIDIDFAKRTGVLEHITHTPARLETGKQHNTGVYFTDIPRGVDGLATMDHKRAEQLGYFKLDML | 0.0214
33 | HMIDNKIIRSLRQKRNMTLEELAKKANISVSYLSEIELGKKQPSLETINKLSQALNISREGLI | -0.0581
34 | HMIDPHGSLTLDLRPRDARVEIIDSNKTYKPGVRLPMGEYAIAVSRRGYISETKRINIEYGDNRERVAL | 0.108
35 | HMIDSDENERIKELIKALISETLKSRGVSPEVISDIKERVDRLHNEELPRFAAELKELISRN | -0.0979
36 | HMIDSEEVMETIQDLGYSPVFDVKEKFYKIKEEQIGKITLEVHIILRYGMVDLVWIVRENGELLLG | -0.0952
37 | HMIDTLEYIISEESKGLRADQAITMVNGEFSRSLIQKWIKKGSILVNGKKIKPRDILNLNDKVTINPEEN | -0.24
38 | HMIEDMQQWIRQIREIVSNRLDLTRNISDDEIREVISDIVMEQSRQQYMSLNEKKTLMEGVFNSMR | -0.534
39 | HMIEEIETQFLFDFGLIGHPNSAKIREKLSEALGIGYVNGKQLQKRLMMFGITKQQVVDVLTD | -4.78
40 | HMIEMAGGYRKGDRVELHSLKGAAEHNGKQGTVVGPQGERVKVLLDDSDSKTLALKVTNLTKLESA | 0.0656
41 | HMIEMGNRIRTLRKRRVGSQSEFAEKLDVSVVTISRIENGMTKIDAELLIKMSEVLQVPVNIILGM | -3.29
42 | HMIENPGQTFERIAGKITRTLRTGPLRIQQLDLLFSESGEQVMDVLRAMAENGEILIKDDTIQWNGHN | -0.246
43 | HMIERKLRKKEHFIASVGEKVKIKNFATETYKGELISADNEKVVVETEFGKEEITYDNILAAATYFE | -0.808
44 | HMIFNENLKSAREKKGLSQKEVAEAIGVAKSTYSLYESGNREPNVQTIKRIADVLNVSADVLLGL | -0.136
45 | HMIGELVVEDLAAASEINVDTIRYYQRLGLLEPPRRRGRRAVYDHTHLERLAEIRRLAGAGFTLAQIGRLK | -3.19
46 | HMIGILSDREAEILALLDEGLTNKAIGRRLNLAEPTVKFHLKNLYAKLGVGRRQLAVNVAKGSGLLNSD | -1.4
47 | HMIGIRLKELVLKNQSAWVGLRVSELDISRKTMIVMIRRGDKMLIPNGSTILRSGDVLLLYTR | -0.682
48 | HMIGITTANLNVRTGTDTNYTSIAILPKGTKVNILEENVKPGWYKIQFDEIYAFVSSKYIKIQS | -3.56
49 | HMIGMDMQELIGRYKGDPDEMGKIELAAMSMLKLSEDMSSDHVLQKSKLRQDGLWLLKYVQE | -0.637
50 | HMIHEQSLHKIRNFIGSLPESLRTAFTLREQDGLSYEEIGKITNTPIGTVRSRIYRARESILDHINQE | -1.23
51 | HMIHIGAQEALGEFQDEEGNLTASKKEVVAALVKKSKEVSFPTSYEYEVAARMAADEYNDAGQRMA | 0.167
52 | HMIHKTDAINLGQRLLKSSLKEFDVSLKDIPNKTLMYILSEYKFNSLDDLYREIGLGNVIPKLVALRMAP | -0.585

Row | Sequence | soluble fraction (log2)
53 | HMIHTYVETRKVGNNDGLIRVDNKYYRVPQHLVGMKVQIQIDEATISVLQGGVMVATLDKTADVFNPQA | -3.24
54 | HMIIDPQIRTLWTSQIIDILKSNPKRSIRSILELYPSNKESWVLIILQELIGEEKIIRDLDYLYFNK | -1.79
55 | HMIIIMKMGADESQVQETIKRIKDLGFNTHLSKGENRTIIGVIGDVSSIDESDVERLRATPYIAEVVRVS | -0.455
56 | HMIIIPKKDYDVSQLDNLVSWLKDRGLEVHISRGENLTVIGLIGDTSKIDIDLIRSLDVVEEVKRIQ | -0.749
57 | HMIIVMASSKKEDVAHVVHKIEELGYKAHVIVGVERTVVAAVGDERGKERLISLEALPHVEKVFPILK | -2.16
58 | HMIKEVEYSQFLQMTDQGEVGKVEINEQENSILFTDKAEKNIYKTGMVEDAELSMRLYEAGIPFSGQI | 0.101
59 | HMIKEYEVLNYVTYEYDEIKKKLEEDFGIIVLMKEAYSDETPAGIIMDQDVEQGRIFKEGATNTITFTVS | -0.582
60 | HMIKLSEAEWKVMKLLWEESPKTMMQITNLLKETTGWTKHTVMTFLKRMEEKKAIHYEEGGRAKLYYP | -0.863
61 | HMIKVASVDGASDELAHEIREIMPLDFPVSYFDLDIKYLHKVLNDIPAVESAAIKVTVSGVLQIDISER | 0.569
62 | HMILALAISSEEDDARIYATYADRLREAYPASARVFEGMVDEEHEHRRRLIDLFQRRFGDTIPLVRREHV | -0.446
63 | HMILNPADEEKMNLINFELQQRGLEINDKEMQYIFTHHSRDLNSLLNLAEKLDEISHQEKKSISINLIKKI | -0.0616
64 | HMILNWSEYTRSEIIELARDLSPDKYMIIDDINTYSKMKLLPSQAFIAEMFGSLRQFQKEAWGRE | -1.62
65 | HMILPKFNQLLGQMGENIKLARKRRKLTAVQVSERAGIARSTLYLIEKGDASVSLGAYFNVLRVLG | -1.67
66 | HMIMEVDYGTFMKMTEENAIGRVQMDSTEIIFTDKENTQVYSTGIMYDPDLTQRLYDAGAVFA | -0.536
67 | HMIMGTIEKRGPFSFRIGVQVRLPDGSWEWIRDTIHVSPDLSARAARKQAEMALARLEADVYEGKRKPD | -2.18
68 | HMIMLDRILKIMDYNKFTPSEFADVLEIDRSRLSHILNGRNKPSLEIVMKILEKFPEISSDWLLFGSGNML | -2.73
69 | HMIMNEYEELRDRYLIGQIWKIGDLIEAKGIEGKIIQRGTNYVTFNDNNGKVHKAWLHEIKYEQ | -0.433
70 | HMIMNKEIPVVADEFVEKEFGTGAVKLTPAHDPNDYESGERHGLEVVEVFDETGKMNDLVPEYEG | 0.757
71 | HMIMTGSIQEKNGKYYTVLNIKDKNGKYKKKWQTTGLPVKGNKRKAEQILRRRIAEYEANQL | -0.861
72 | HMIMTHSALLEKDGFDIVKVHFERPNDDGFDFLDMTLPGEIVYKSFGFSEDEILKLKRYAKNNSSLIWDF | -2.5
73 | HMINEDMTQSDRMELWGRLIDVVEDWLAEKGITEEDIPNEEREGVEDAAIIFGDDYDYLADRFSEVIGISR | -1.2
74 | HMINFKVKNVQDVGSRLDKFLVTNIPEFSRSKIQKHIKNGKVMVNGLLKKTGYKLEINDEINILNN | -0.521
75 | HMINLDYILELIFEKNNKTKDKTALIEEIRGVIRASVGNRAKESLIVDFINDTDLDTITDKASIIESFFEY | -2.97
76 | HMINLTKVGNFISIIKLQQIWTIDELLKKVDINYDELLYLLTILSDIYSKNGEYFFDFDIDAENNKILFNN | 0.0266
77 | HMINVGYKFKQIRENAGLTLKQVSAMSGLSVSFISQIERGVVDPSWSSLKKISAALNIKLKDLF | -2.82
